Experimental data from patent US20120302506A1.

Target: Human uPA (Chemicon) (human) (UniProt P00749)
Assay: cell-based or functional assay

Chain of Glutathione S-transferase (GST)-tagged maspin (GST-maspin), bacterial recombinant (P08515 whole entry): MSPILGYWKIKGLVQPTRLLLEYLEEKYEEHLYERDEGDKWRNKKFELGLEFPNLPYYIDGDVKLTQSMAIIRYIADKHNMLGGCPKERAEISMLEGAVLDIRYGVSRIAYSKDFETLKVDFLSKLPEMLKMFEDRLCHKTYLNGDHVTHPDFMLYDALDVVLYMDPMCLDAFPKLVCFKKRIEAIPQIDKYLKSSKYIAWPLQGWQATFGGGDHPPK

“Glutathione S-transferase (GST)-tagged maspin (GST-maspin), bacterial recombinant (from UniProt P08515 1-218)” showed a maspin-mediated adhesion of uPA-stripped MCF0A cells resupplied with exogenous uPA (800 nM) (% of GST control) of 154.
